Paper PMC2923267 (Biochemistry, 2010)

Biological target: the molecule itself
Assay: AUC

B1: WbpE from Pseudomonas aeruginosa PAO1 (enzyme, UniProt Q9HZ76 1-359, looked up)
chain: MIEFIDLKNQQARIKDKIDAGIQRVLRHGQYILGPEVTELEDRLADFVGAKYCISCANGTDALQIVQMALGVGPGDEVITPGFTYVATAETVALLGAKPVYVDIDPRTYNLDPQLLEAAITPRTKAIIPVSLYGQCADFDAINAIASKYGIPVIEDAAQSFGASYKGKRSCNLSTVACTSFFPSKPLGCYGDGGAIFTNDDELATAIRQIARHGQDRRYHHIRVGVNSRLDTLQAAILLPKLEIFEEEIALRQKVAAEYDLSLKQVGIGTPFIEVNNISVYAQYTVRMDNRESVQASLKAAGVPTAVHYPIPLNKQPAVADEKAKLPVGDKAATQVMSLPMHPYLDTASIKIICAALTN
In the case of B1, the “stoichiometry N” value is reported as 2.
